The results in this text go back to US20190375846A1 (ULTRAHUMAN ONE, published 2019).

Positions count from the first letter of the chain named.

Assay [1] has as its target T1, cynomolgus monkey GITR at the cell surface (cynomolgus monkey).
T1 construct: whole, on cells; also called cyno GITR+ cells
Nature of the assay: flow cytometry, cyno GITR-transfected murine blastoma cells, 10,000-13.7 ng/ml. As for the experimental part: Concentration-dependent binding to GITR at the cell surface was analysed using flow cytometry.

Assay [2] concerns the target T2, h4-1BB-Fc.
T2 construct: Member of the panel m8; not shown: Fc part and any linker
Nature of the assay: direct ELISA on coated protein, IgG at 10 µg/ml, OD 450 nm. On the procedure: (§1) Off-target homologue binding risk for mVH/mVL (FIG. 8A), VH3/VL2 (FIG. 8B) and lead engineered IgG clones G-G10 (FIG. 8C), I-C2 (FIG. 8D) and D-A6 (FIG. 8E) was examined by direct ELISA on GITR-Fc orthologs and a panel of 13 human TNFRSF and immunoglobulin superfamily proteins (as labelled on each X-axis). Binding to human, cyno and murine GITR-Fcs (h/c/mGITR-Fc) was performed at an IgG concentration of 1 μg/ml. Binding to all other proteins was performed at an IgG concentration of 10 μg/ml.
(§2) Anti-GITR antibodies were tested for polyreactivity by ELISA. Purified, recombinant, target and non-target antigens were coated in 96-well Nunc maxisorp plates at 100 ng per well in carbonate buffer, at 4° C. overnight. Plates were then washed 3× with PBS, blocked with 1% BSA in PBS, then washed 3× with PBS-Tween20. A dilution series of primary antibodies was then applied, plates were washed 3× with PBS-Tween20 followed by application of goat anti-human kappa chain-HRP 1:4,000 secondary antibody. Wells were then washed 3× with PBS-Tween20 and 2× with PBS, 100 μl TMB peroxidase substrate was added per well, the was reaction stopped by adding 100 μl 2M H₂SO₄ and absorbances were read at 450 nm. Anti-GITR antibodies were also tested for binding specificity by flow cytometry. HuT78 cells were activated by incubation with anti-CD3/anti-CD28 beads for 3 days. Naïve cells were incubated in media alone. At the end of the incubation the cells were harvested and the beads removed from the activated cells using a magnet. Cells were incubated with viability dye and then stained with anti-GITR antibodies at 4° C. […] Binding of VH1/VI1 and D-A6 IgG1 proteins were detected by subsequent incubation with a PE labelled goat anti-human IgG. Cells were fixed with 4% PFA before being stored in PBS at 4° C. overnight. Cells were analysed the next day using a BD Fortessa flow cytometer running Diva software. Analysis was performed using FlowJo software.

In assay [3] the target is T3, hLTBR-Fc (human, UniProt P36941).
T3 construct: recombinant Fc fusion; Member of the panel m8
The assay is described as above. As for the experimental part:
as §1, §2

Assay [4] concerns the target T4, hDR3-Fc (human, UniProt Q93038).
T4 construct: recombinant Fc fusion; Member of the panel m8
T4 sequence (fusion chain, looked up): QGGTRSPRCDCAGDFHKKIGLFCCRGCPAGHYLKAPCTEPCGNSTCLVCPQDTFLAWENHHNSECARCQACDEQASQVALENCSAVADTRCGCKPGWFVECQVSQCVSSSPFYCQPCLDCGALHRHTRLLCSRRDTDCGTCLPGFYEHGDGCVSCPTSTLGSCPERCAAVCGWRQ
Described as above. On the procedure: as §1, §2

In assay [5] the target is T5, hVCAM-1 (human, UniProt P19320).
T5 construct: purified recombinant protein; Member of the panel m8; the axis also carries a separate label hVCAM-Fc (f6)
T5 sequence (looked up): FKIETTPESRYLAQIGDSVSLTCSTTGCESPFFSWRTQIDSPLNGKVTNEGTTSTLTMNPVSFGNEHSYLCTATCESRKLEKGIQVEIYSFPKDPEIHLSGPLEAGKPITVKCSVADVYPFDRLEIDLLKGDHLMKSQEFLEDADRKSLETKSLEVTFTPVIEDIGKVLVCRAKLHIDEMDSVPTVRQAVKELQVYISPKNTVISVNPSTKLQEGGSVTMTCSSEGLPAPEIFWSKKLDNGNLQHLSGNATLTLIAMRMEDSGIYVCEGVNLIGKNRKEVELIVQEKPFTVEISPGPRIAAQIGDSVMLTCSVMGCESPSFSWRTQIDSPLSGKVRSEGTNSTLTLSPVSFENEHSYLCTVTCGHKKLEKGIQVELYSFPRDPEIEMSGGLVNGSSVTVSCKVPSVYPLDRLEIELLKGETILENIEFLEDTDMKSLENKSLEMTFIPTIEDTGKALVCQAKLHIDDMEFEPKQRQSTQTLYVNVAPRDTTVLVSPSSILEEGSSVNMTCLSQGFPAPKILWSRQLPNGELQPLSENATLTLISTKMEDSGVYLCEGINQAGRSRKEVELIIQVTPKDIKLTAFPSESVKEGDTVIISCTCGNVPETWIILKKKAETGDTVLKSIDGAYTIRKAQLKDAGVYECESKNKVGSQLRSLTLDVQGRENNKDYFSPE
The assay is described as above. As for the experimental part:
as §1, §2

For assay [6], the target named is T6, hBAFFR-Fc (human, UniProt Q96RJ3).
T6 construct: recombinant Fc fusion; Member of the panel m8
The description is as above. On the procedure:
as §1, §2

For assay [7], the target named is T7, hICAM-1-Fc (human, UniProt P05362).
T7 construct: recombinant Fc fusion; Member of the panel m8
Described as above. On the procedure: as §1, §2

Assay [8] has as its target T8, human GITR-Fc (human, UniProt Q9Y5U5 26-161).
T8 construct: Recombinant GITR-Fc; also called hGITR-Fc; hGITR; not shown: Fc part
T8 sequence (looked up): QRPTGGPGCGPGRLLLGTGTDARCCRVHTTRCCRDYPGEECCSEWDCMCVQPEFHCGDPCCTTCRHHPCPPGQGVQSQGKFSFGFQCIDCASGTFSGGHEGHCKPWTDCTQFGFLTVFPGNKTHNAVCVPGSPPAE
Nature of the assay: direct ELISA, IgG at 1 µg/ml. As for the experimental part: as §1, §2

The target in assay [9] is T9, cynomolgus monkey GITR-Fc (cynomolgus monkey (Macaca fascicularis)).
T9 construct: also called cyno GITR-Fc; cGITR-Fc
Nature of the assay: direct ELISA, IgG at 1 µg/ml. As for the experimental part: as §1, §2
A general note: In an ELISA, binding on a coated surface is turned into a signal by an enzyme label.

T7 sequence (P05362 28-480 limits assumed): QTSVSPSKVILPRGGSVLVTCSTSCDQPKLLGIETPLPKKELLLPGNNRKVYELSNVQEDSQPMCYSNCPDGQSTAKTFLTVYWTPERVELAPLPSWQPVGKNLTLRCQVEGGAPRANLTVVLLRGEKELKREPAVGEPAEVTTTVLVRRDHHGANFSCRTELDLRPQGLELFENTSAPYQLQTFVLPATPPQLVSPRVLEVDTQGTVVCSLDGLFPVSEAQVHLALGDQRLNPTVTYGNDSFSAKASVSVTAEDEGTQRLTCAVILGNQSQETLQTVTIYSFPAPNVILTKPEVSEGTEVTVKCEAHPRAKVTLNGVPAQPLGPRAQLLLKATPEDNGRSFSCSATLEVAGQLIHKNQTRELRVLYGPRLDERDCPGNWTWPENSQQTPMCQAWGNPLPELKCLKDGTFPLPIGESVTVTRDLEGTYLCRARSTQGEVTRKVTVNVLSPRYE
T6 sequence (Q96RJ3 7-71 limits assumed): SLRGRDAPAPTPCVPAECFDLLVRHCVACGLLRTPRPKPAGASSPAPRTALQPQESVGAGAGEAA
T2 sequence (chain, as listed by the source limits assumed): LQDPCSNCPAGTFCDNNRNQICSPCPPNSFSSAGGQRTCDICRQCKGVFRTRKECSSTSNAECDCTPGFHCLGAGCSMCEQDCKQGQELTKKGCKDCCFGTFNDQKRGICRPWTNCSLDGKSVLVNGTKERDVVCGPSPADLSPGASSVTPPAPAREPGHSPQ
T3 sequence (P36941 28-227 limits assumed): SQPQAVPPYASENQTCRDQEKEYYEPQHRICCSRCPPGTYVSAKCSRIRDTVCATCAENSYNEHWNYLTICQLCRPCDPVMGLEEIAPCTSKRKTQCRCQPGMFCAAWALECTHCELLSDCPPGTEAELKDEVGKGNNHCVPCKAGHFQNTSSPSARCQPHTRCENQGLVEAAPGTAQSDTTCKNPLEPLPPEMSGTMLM

B1: chimeric anti-GITR IgG1 mVH/mVL (6C8 murine v-domains) (antibody, V domains shown)
VH: QVTLKESGPGILKPSQTLSLTCSFSGFSLSTSGMGVGWIRQPSGKGLEWLAHIWWDDDKYYNPSLKSQLTISKDTSRNQVFLKITSVDTADAATYYCARTRRYFPFAYWGQGTLVTVSS
VL: DIVMTQSQKFMSTSVGDRVSVTCKASQNVGTNVAWYQQKPGQSPKALIYSASYRYSGVPDRFTGSGSGTDFTLTINNVHSEDLAEYFCQQYNTDPLTFGAGTKLEIK
notes: Full-length human IgG1, kappa; also called GITR-mVH/mVL; chimeric IgG
In the case of B1, the “concentration at maximum MFI” value in [1] was roughly 1110 ng/mL. The binding result in assay [2], in assay [3], in assay [4], in assay [5], in assay [6] and in assay [7] was “no binding (tested: 10 µg/ml)” in each case. Further, the OD450 nm in [8] is greater than 3 OD450 nm; in assay [9] it was greater than 1 OD450 nm.

B2: D-A6 IgG1 (antibody, V domains shown)
VH: EVQLVESGGGLVQPGGSLRLSCAASGFSLSTSGYGVGWVRQAPGKGLEWLAHIWWDDDKYYVDSVKGRFTISRDNAKNSLYLQMNSLRAEDTAVYYCARTRQYFPFAYWGQGTLVTVSS
VL: EIVLTQSPATLSLSPGERATLSCRASQSVGSNLAWYQQKPGQAPRLLIYSASYRYTGIPARFSGSGSGTDFTLTISSLEPEDFAVYYCQQYSTDPLTFGGGTKVEIK
notes: Human IgG1
Turning to B2, the “concentration at maximum MFI” value in [1] was roughly 1110 ng/mL. In addition, the binding result in assay [2], in assay [3], in [4], in assay [5], in assay [6] and in assay [7] was “no binding (tested: 10 µg/ml)” each time. Also, the OD450 nm in assay [8] was greater than 3 OD450 nm; in [9], greater than 1 OD450 nm.

B3: G-G10 IgG1 (antibody, V domains shown)
VH: B2 VH with S32F
VL: B2 VL with S31T, S50Y, T93N
notes: Human IgG1
In the case of B3, in [1], the “concentration at maximum MFI” value is roughly 1110 ng/mL. The binding result in [2], in [3], in assay [4], in assay [5], in assay [6] and in assay [7] was “no binding (tested: 10 µg/ml)” throughout. Besides, the OD450 nm in [8] is greater than 3 OD450 nm; in assay [9], greater than 1 OD450 nm.

B4: I-C2 IgG1 (antibody, V domains shown)
VH: B2 VH with Q102L
VL: B2 VL with S28N, Y53N, T56S
notes: Human IgG1
Turning to B4, the “concentration at maximum MFI” value in [1] was roughly 1110 ng/mL. In addition, the binding result in [2], in [3], in assay [4], in assay [5], in [6] and in [7] was “no binding (tested: 10 µg/ml)” each time. Besides, the OD450 nm in [8] was greater than 3 OD450 nm; in assay [9], greater than 1 OD450 nm.

B5: VH3/VL2 IgG1 (antibody, V domains shown)
VH: B2 VH with Y34M, Q102R
VL: B2 VL with S28N, S31T, L33V, T56S, S92N
notes: Human IgG1; template of the mutagenesis library; also called G-VH3/VL2; VH3 family
Turning to B5, in assay [1], the “concentration at maximum MFI” value is roughly 1110 ng/mL. Besides, the binding result in assay [2], in assay [3], in assay [4], in assay [5], in assay [6] and in [7] was “no binding (tested: 10 µg/ml)” in each case. Further, the OD450 nm in assay [8] was greater than 3 OD450 nm; in assay [9], greater than 1 OD450 nm.
